According to US20220348609A1 (University of Washington, published 2022):

B1: av6_3 A39K (designed binder)
chain: MAVVRFVFRGDLAELMLRAVKDHLKKEGPHWNITSTNNGKELVVRGIHESDAKRIAKWVEKRFPGVHTETQQD
notes: not shown: C-terminal His tag (pET29b, NdeI/XhoI)
B2: av6_3 E13TG64R (designed binder)
chain: MAVVRFVFRGDLATLMLRAVKDHLKKEGPHWNITSTNNGAELVVRGIHESDAKRIAKWVEKRFPRVHTETQQD
notes: as for B1
B3: av6_3 E13TM15RA39K (designed binder)
chain: MAVVRFVFRGDLATLRLRAVKDHLKKEGPHWNITSTNNGKELVVRGIHESDAKRIAKWVEKRFPGVHTETQQD
notes: as for B1
B4: av6_3 E13TM15RA39KG64R (designed binder)
chain: MAVVRFVFRGDLATLRLRAVKDHLKKEGPHWNITSTNNGKELVVRGIHESDAKRIAKWVEKRFPRVHTETQQD
notes: as for B1
B5: av6_3 G64R (designed binder)
chain: MAVVRFVFRGDLAELMLRAVKDHLKKEGPHWNITSTNNGAELVVRGIHESDAKRIAKWVEKRFPRVHTETQQD
notes: as for B1
B6: av6_3 M15R (designed binder)
chain: MAVVRFVFRGDLAELRLRAVKDHLKKEGPHWNITSTNNGAELVVRGIHESDAKRIAKWVEKRFPGVHTETQQD
notes: as for B1
B7: av6_3 M15RG64R (designed binder)
chain: MAVVRFVFRGDLAELRLRAVKDHLKKEGPHWNITSTNNGAELVVRGIHESDAKRIAKWVEKRFPRVHTETQQD
notes: as for B1
B8: av6_9 (designed binder)
chain: MAVVRFVFRGDLAELMLRAVKDHLKKEGPHWNITSDTSKGAELVVRGIHESDAKRIARTVEKLTNGKSQSLVL
notes: Yeast display: Aga2 fusion with C-terminal myc tag; also purified from E. coli with C-terminal His tag
B9: evolved variant from the first round of design (02_E2V_T12A_E40V_S44I_T63I) (designed binder)
chain: AVVRFVFRGDLAELMLRAVKDHLKKEGPHWNITSRGNELVVRGIHESDAKRIQKEFPSVQSTIQA
notes: No substitutions were applied here; also called original crystallized variant
B10: av6_3 (designed binder)
chain: MAVVRFVFRGDLAELMLRAVKDHLKKEGPHWNITSTNNGAELVVRGIHESDAKRIAKWVEKRFPGVHTETQQD
notes: the purified protein (BLI, cell assays) carries a C-terminal His tag; also called αv6_3; original unevolved av6_3; not shown: C-terminal His tag of the purified protein (pET29b, NdeI/XhoI)
B11: av6_7 (designed binder)
chain: MAVVRFVFRGDLAELMLRAVKDHLKKEGPHWNITSDESGFELVVRGIHESDAKRIAKWVEKRFPGVHTETQQD
notes: as for B8
B12: av6_11 (designed binder)
chain: MAVVRFVFRGDLAELMLRAVKDHLKKEGPHWNITSDTSKGAELVVRGIHESDAKRIAKWVEKRFPGVHTETQQ
notes: as for B8
B13: av6_15 (designed binder)
chain: MAVVRFVFRGDLAELMLRAVKDHLKKEGPHWNITSVESSQVELVVRGIHESDAKRIAKWVEKRFPGVHTETQQ
notes: as for B8
B14: BP1 labelled with Alexa Fluor 488 on an engineered C-terminal cysteine (designed binder)
chain: MAVVRFVFRGDLATLMLRAVKDHLKKEGPHWNITSTNNGAELVVRGIHESDAKRIAKWVEKRFPGVHTETQQD
modifications: Alexa Fluor 488 C5 maleimide on the engineered C-terminal cysteine
notes: also called E13T-AF488; fluorescently labelled BP1; not shown: engineered C-terminal cysteine and any tag
B15: BP2 labelled with Alexa Fluor 488 on an engineered C-terminal cysteine (designed binder)
chain: MAVVRFVFRGDLAELMLRAVKDHLKKEGPHWNITSTNNGKELVVRGIHESDAKRIAKWVEKRFPRVHTETQQD
modifications: Alexa Fluor 488 C5 maleimide on the engineered C-terminal cysteine
notes: also called AG-AF488; fluorescently labelled BP2; not shown: engineered C-terminal cysteine and any tag
B16: av6_4 (designed binder)
single chain: MAVVRFVFRGDLAELMLRAVKDHLKKEGPHWNITSTNNGAELVVRGIHESDAKRIAKWARLKFPGTDTRIEVR
B17: av6_8 (designed binder)
single chain: MAVVRFVFRGDLAELMLRAVKDHLKKEGPHWNITSDESGFELVVRGIHESDAKRIAKWARLKFPGTDTRIEVR
B18: av6_12 (designed binder)
single chain: MAVVRFVFRGDLAELMLRAVKDHLKKEGPHWNITSDTSKGAELVVRGIHESDAKRIAKWARLKFPGTDTRIEV
B19: av6_16 (designed binder)
single chain: MAVVRFVFRGDLAELMLRAVKDHLKKEGPHWNITSVESSQVELVVRGIHESDAKRIAKWARLKFPGTDTRIEV
B20: av6_13 (designed binder)
single chain: MAVVRFVFRGDLAELMLRAVKDHLKKEGPHWNITSVESSQVELVVRGIHESDAKRIARTVEKLTNGKSQSLVL
B21: av6_1 (designed binder)
single chain: MAVVRFVFRGDLAELMLRAVKDHLKKEGPHWNITSTNNGAELVVRGIHESDAKRIARTVEKLTNGKSQSLVLT
B22: av6_5 (designed binder)
single chain: MAVVRFVFRGDLAELMLRAVKDHLKKEGPHWNITSDESGFELVVRGIHESDAKRIARTVEKLTNGKSQSLVLT

Each binder was assayed against T1, human αvβ6 integrin, soluble protein (biotinylated for yeast display; in solution for BLI) (human, UniProt P06756 31-992; P18564 22-707, limits assumed, biotinylated in the yeast display experiments (site not stated)) (assay: BLI (Octet RED96), His-tagged binder on Ni-NTA sensor, αvβ6 in solution).
T1 construct: also called avb6; alpha(v) beta (6) integrin
T1 sequence (P06756 31-992 limits assumed, chain 1 of 2): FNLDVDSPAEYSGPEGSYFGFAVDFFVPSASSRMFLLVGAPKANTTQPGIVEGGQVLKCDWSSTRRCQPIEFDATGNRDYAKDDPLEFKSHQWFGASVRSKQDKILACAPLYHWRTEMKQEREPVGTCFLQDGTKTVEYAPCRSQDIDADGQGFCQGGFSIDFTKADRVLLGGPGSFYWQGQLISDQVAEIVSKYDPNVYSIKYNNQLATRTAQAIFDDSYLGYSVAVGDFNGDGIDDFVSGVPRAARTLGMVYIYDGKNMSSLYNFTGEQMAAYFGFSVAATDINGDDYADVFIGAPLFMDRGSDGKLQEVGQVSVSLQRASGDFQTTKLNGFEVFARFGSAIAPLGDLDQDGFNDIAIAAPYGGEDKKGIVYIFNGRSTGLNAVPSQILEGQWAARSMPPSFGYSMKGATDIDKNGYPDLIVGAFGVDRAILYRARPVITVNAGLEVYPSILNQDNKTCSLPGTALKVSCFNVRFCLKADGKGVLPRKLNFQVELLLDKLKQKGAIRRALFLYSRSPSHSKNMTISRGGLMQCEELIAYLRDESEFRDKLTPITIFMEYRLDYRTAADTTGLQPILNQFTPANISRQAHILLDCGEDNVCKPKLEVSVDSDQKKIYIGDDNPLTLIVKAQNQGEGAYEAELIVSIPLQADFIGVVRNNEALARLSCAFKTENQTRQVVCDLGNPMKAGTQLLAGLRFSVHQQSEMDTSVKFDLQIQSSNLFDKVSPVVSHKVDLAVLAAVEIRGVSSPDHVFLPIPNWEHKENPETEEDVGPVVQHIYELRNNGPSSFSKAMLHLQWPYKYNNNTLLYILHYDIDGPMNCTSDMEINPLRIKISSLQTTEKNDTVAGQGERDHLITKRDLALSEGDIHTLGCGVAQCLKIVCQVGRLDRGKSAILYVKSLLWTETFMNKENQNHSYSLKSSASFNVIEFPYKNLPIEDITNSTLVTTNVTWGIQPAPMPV
T1 sequence (P18564 22-707 limits assumed, chain 2 of 2): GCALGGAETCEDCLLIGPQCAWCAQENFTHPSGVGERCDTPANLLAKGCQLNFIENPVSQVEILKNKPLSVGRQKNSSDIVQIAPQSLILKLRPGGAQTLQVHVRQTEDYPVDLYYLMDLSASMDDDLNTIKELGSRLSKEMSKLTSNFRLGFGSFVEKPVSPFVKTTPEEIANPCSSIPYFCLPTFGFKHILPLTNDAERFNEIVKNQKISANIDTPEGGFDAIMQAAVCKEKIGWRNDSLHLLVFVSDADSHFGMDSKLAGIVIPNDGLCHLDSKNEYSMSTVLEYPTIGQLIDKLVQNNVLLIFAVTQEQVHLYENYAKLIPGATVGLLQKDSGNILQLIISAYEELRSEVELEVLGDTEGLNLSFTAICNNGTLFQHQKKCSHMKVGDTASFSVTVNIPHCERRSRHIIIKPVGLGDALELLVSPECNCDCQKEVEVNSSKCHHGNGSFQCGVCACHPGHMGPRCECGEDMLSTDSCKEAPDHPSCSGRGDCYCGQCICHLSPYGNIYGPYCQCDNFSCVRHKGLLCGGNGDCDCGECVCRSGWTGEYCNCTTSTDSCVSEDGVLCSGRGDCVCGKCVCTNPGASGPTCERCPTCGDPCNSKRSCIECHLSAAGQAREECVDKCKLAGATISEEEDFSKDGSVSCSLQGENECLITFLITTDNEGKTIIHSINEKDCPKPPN
Method: Data was collected on an Octet™ RED96 (Forte Bio) and processed using the instrument's software. His Tagged protein binders were immobilized on Ni-NTA octet sensors. The tips are then dipped into wells containing different concentrations of αᵥβ₆. Association and dissociation steps were recorded for 900 s and 1200 s respectively. An empty sensor with no loaded binding protein was included to discard any non-specific binding of αᵥβ₆ to the octet tip.
Work on B1 yielded a Kd of 0.411 nM. For B2, the Kd was 0.398 nM. In the case of B3, the Kd is reported as 0.397 nM. For B4, the Kd was 0.42 nM. B5 showed a Kd of 0.47 nM. For B6, the Kd was 0.38 nM. For B7, the Kd was 0.404 nM.

What follows are binders tested against T2, human αvβ6 integrin on cells (A431 carcinoma cells; K562 cells stably transfected with αvβ6) (human, UniProt P06756 31-1048; P18564 22-788) (assay: row 'X(selectivity)' of the drawn table: αvβ6 over αvβ8, cell surface competition assay).
T2 construct: whole, on cells; Endogenous on A431 cells, transfected on K562 cells; also called αvβ6(+) cells; K562 avb6 transfected clone A4
T2 sequence (P06756 31-1048, chain 1 of 2): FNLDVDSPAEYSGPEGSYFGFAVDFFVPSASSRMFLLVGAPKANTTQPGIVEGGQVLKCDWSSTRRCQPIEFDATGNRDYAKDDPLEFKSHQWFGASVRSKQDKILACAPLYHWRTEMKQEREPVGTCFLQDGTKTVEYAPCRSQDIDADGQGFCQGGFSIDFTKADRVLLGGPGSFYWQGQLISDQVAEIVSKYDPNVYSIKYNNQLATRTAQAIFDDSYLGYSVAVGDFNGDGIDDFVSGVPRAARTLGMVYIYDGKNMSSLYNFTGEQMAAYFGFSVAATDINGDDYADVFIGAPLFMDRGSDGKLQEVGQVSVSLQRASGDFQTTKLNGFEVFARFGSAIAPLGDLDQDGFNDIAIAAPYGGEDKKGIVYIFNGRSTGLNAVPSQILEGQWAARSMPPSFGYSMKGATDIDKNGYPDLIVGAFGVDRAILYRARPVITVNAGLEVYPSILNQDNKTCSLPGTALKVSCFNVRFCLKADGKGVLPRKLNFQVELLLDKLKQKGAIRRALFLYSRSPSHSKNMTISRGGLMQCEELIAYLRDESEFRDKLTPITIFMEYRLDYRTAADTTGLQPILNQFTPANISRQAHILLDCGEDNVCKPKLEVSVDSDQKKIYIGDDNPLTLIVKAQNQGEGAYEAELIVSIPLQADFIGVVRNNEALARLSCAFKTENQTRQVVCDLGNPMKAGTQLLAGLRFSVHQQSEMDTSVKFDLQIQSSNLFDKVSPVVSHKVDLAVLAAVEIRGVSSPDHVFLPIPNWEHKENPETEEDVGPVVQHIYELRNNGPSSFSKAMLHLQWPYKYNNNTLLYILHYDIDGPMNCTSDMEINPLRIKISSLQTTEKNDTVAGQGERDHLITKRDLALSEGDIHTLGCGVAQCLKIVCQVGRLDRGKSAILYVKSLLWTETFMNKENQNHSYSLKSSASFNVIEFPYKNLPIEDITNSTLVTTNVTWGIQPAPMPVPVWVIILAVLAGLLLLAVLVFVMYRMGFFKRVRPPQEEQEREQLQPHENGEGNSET
T2 sequence (P18564 22-788, chain 2 of 2): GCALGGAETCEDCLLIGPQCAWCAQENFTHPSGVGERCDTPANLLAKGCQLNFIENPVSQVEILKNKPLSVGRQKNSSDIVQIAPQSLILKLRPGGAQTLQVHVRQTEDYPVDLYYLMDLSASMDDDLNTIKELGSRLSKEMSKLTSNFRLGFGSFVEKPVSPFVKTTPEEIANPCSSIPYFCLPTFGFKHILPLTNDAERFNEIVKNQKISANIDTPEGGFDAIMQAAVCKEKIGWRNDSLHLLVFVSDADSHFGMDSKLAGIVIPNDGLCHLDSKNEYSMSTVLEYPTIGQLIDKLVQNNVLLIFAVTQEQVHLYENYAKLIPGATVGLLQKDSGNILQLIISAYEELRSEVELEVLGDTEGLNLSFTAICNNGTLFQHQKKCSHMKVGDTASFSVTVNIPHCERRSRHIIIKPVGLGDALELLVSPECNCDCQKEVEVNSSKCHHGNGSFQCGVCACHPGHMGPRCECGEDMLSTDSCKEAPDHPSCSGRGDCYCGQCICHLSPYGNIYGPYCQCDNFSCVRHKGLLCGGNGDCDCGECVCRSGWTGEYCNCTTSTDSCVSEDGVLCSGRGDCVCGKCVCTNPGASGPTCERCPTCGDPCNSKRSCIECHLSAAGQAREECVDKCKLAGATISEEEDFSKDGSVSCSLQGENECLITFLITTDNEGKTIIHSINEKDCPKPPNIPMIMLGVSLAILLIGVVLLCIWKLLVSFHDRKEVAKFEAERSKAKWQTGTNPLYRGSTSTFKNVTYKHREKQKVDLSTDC
For B8, the “X(selectivity)” value was 3 X. With B9 the “X(selectivity)” value was 3 X. For B10, the “X(selectivity)” value was 14 X. For B11, the “X(selectivity)” value was 1.5 X. With B12 the “X(selectivity)” value was 8 X. B13 was tested, and the “X(selectivity)” value was 6 X.

What follows are binders tested against T2, human αvβ6 integrin on cells (A431 …) (assay: flow cytometry titration of AF488-labelled binder on A431 cells, 5 hours at 4° C., one site-specific binding fit).
From the text: We set out to test the ability of these binders to bind to αᵥβ₆(+) cells and block TGF-β mediated downstream signaling. We generated fluorescently labelled BP1 and BP2 by conjugating Alexafluor-488 to an engineered C-term cysteine via maleimide chemistry. The fluorescently labelled proteins were titrated against αᵥβ₆ positive human epidermoid carcinoma A431 cells.
Epidermoid cancer cells (A431) and human embryonic kidney 293T cells (HEK 293T) were purchased from American Type Culture Collection (ATCC) and grown in Dulbecco's Modified Eagle Medium (DMEM, Gibco) supplemented with 10% fetal bovine serum (FBS, Gibco) in a humidified atmosphere with 5% CO2 at 37° C. Binding assays were performed on A431 carcinoma cells. A431 cells were dissociated from culture flasks with enzyme-free cell dissociation buffer (Gibco). Varying concentrations of AG-AF488 and E13T-AF488 were incubated with 5×10^4 A431 cells in 1×TBS with 0.1% BSA, 1 mM Ca2+, and 1 mM Mg2+ (BTBS) rotating in suspension for 5 hours at 4° C. Sufficient incubation volumes were used to avoid >5% ligand depletion. After incubation, cells were washed with BTBS and analyzed by flow cytometry on an Accuri™ C6 instrument (BD Biosciences), and data were quantified using FlowJo™ software (TreeStar). Kd values were determined by fitting the data to a one site—specific binding curve using Prism™ 7 (GraphPad Software).
With B14 the Kd was 0.167 nM. B15 gave a Kd of 0.03 nM.

Biological target: T1, human αvβ6 integrin, soluble protein …
Assay: BLI (Octet RED96), His-tagged binder on Ni-NTA sensor, αvβ6 in solution
Remark: another data set of the same source
In the case of B10, the “apparent Kd (pooled screen)” value is reported as 1.18 nM.

The binders below were run against T1, human αvβ6 integrin, soluble protein … (assay: yeast surface display, flow cytometry, 50 pM biotinylated αvβ6 stained with SAPE).
From the text: Yeast Display: Standard yeast surface display techniques were used to screen designs for binding and directed evolution. Genes encoding the designs were cloned into petcon2 in frame with N-term aga2 and C-term myc tag. Surface expression of Myc was detected using Anti-C Myc antibody and binding was detected by using biotinylated human αᵥβ₆ and stained with phycoerythrin conjugated streptavidin for FACS. Two different buffers were used for the binding and washing steps for yeast display: Binding Buffer 20 mM TRIS, 150 mM NaCl, pH=8.0, 1% BSA, 1 mM Ca(II) and 1 mM Mg(II), Wash Buffer: 20 mM TRIS, 150 mM NaCl, pH=8.0, 0.5% BSA, 1 mM Ca(II) and 1 mM Mg(II).
B16: binds. B17: binds. B18: binds. B19: binds. B20: binds. B21: binds. B22: binds.
